Laboratory results as given in PMC11066007, “CORVET-specific subunit levels determine the balance between HOPS/CORVET endosomal tethering complexes” (Scientific Reports, 2024).

T1: VPS39-FLAG (human, UniProt Q96JC1 1-886)
T1 construct: VPS39, human, HOPS-specific subunit; DNA region encoding the full-length protein fused with a FLAG tag; also called HOPS-specific VPS39; not shown: FLAG, N-terminal, kept
T1 sequence (looked up): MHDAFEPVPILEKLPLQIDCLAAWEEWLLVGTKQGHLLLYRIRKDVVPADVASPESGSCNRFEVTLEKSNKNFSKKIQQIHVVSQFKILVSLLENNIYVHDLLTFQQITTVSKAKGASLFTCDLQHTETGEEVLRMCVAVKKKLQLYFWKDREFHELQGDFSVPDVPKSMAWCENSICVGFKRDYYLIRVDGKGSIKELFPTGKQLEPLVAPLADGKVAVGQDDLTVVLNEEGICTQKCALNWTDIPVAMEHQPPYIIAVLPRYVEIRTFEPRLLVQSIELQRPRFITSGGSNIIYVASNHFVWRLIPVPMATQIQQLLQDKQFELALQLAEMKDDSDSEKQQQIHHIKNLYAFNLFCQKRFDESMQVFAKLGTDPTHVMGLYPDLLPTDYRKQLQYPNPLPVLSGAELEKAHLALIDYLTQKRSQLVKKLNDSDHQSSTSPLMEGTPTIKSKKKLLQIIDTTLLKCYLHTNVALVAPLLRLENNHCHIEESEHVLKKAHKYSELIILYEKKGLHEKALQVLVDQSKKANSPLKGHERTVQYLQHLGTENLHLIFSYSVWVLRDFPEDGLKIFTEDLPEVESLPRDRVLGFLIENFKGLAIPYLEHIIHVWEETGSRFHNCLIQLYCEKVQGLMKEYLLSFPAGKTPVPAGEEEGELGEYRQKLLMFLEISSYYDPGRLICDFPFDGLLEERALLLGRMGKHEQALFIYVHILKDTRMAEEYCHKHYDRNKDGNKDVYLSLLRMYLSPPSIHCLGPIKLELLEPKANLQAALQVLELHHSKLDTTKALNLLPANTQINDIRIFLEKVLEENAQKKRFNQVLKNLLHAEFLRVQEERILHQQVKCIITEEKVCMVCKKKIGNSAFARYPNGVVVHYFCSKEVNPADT

T2: VPS41-FLAG (human, UniProt P49754 1-854)
T2 construct: VPS41, human, HOPS-specific subunit; DNA region encoding the full-length protein fused with a FLAG tag; The label puts FLAG after the name, but the methods say N-terminal tags were used for VPS41 and VPS39; also called HOPS-specific VPS41; source: HEK293, stably transfected (pCMV3), in lysate; not shown: FLAG, N-terminal, kept
T2 sequence (looked up): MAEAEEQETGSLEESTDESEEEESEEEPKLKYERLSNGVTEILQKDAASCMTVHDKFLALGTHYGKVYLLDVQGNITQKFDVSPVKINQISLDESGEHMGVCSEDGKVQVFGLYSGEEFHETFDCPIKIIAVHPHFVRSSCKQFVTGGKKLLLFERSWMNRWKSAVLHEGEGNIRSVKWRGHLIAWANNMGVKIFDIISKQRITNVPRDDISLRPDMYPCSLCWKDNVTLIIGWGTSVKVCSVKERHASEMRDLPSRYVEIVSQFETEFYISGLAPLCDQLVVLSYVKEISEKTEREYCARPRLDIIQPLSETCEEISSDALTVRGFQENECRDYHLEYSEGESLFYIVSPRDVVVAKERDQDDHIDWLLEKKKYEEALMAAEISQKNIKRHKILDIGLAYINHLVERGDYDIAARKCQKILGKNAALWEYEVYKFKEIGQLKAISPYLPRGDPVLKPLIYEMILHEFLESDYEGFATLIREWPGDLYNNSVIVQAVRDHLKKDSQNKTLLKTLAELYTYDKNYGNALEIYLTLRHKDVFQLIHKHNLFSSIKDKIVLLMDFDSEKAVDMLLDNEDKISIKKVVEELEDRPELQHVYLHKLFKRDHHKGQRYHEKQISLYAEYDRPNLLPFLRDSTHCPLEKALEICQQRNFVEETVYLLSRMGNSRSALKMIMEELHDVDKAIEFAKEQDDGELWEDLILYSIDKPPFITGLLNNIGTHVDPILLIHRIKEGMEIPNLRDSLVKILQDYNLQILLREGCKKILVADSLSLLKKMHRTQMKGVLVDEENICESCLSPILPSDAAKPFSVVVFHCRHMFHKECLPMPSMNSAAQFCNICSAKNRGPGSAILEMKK


Columns and labels:
VPS39-FLAG = molecular target: T1, VPS39-FLAG; test: co-IP; anti-FLAG beads on total lysates of HEK293 cells stably transfected with a FLAG-tagged specific subunit, with or without transient overexpression of the counterpart subunit (control: pCMV); endogenous VPS11 and VPS18 detected by western blot, densitometry with ImageJ; lysis buffer 50 mM TRIS-HCl pH 7.5, 150 mM NaCl, 1% Triton X-100, 5 mM EDTA; 1.5 h at 4 °C; conditions: partners not purified
VPS41-FLAG = molecular target: T2, VPS41-FLAG; test: as above; conditions: partners not purified

relative amount bound with Tgfbrap1-HA overexpressed (control cells HEK + pCMV as reference) (VPS39-FLAG)	relative amount bound with VPS8 overexpressed (control cells HEK + pCMV as reference) (VPS41-FLAG)	Binder
0.63 relative to control cells	0.69 relative to control cells	VPS18 (natural protein, human (endogenous in HEK293), UniProt Q9P253 1-973, looked up, VPS18, shared class C core subunit of HOPS and CORVET, detected by anti-VPS18 western blot in anti-FLAG precipitates; also called core subunit VPS18; source: endogenous, HEK293 lysate) MASILDEYENSLSRSAVLQPGCPSVGIPHSGYVNAQLEKEVPIFTKQRIDFTPSERITSLVVSSNQLCMSLGKDTLLRIDLGKANEPNHVELGRKDDAKVHKMFLDHTGSHLLIALSSTEVLYVNRNGQKVRPLARWKGQLVESVGWNKALGTESSTGPILVGTAQGHIFEAELSASEGGLFGPAPDLYFRPLYVLNEEGGPAPVCSLEAERGPDGRSFVIATTRQRLFQFIGRAAEGAEAQGFSGLFAAYTDHPPPFREFPSNLGYSELAFYTPKLRSAPRAFAWMMGDGVLYGALDCGRPDSLLSEERVWEYPEGVGPGASPPLAIVLTQFHFLLLLADRVEAVCTLTGQVVLRDHFLEKFGPLKHMVKDSSTGQLWAYTERAVFRYHVQREARDVWRTYLDMNRFDLAKEYCRERPDCLDTVLAREADFCFRQRRYLESARCYALTQSYFEEIALKFLEARQEEALAEFLQRKLASLKPAERTQATLLTTWLTELYLSRLGALQGDPEALTLYRETKECFRTFLSSPRHKEWLFASRASIHELLASHGDTEHMVYFAVIMQDYERVVAYHCQHEAYEEALAVLARHRDPQLFYKFSPILIRHIPRQLVDAWIEMGSRLDARQLIPALVNYSQGGEVQQVSQAIRYMEFCVNVLGETEQAIHNYLLSLYARGRPDSLLAYLEQAGASPHRVHYDLKYALRLCAEHGHHRACVHVYKVLELYEEAVDLALQVDVDLAKQCADLPEEDEELRKKLWLKIARHVVQEEEDVQTAMACLASCPLLKIEDVLPFFPDFVTIDHFKEAICSSLKAYNHHIQELQREMEEATASAQRIRRDLQELRGRYGTVEPQDKCATCDFPLLNRPFYLFLCGHMFHADCLLQAVRPGLPAYKQARLEELQRKLGAAPPPAKGSARAKEAEGGAATAGPSREQLKADLDELVAAECVYCGELMIRSIDRPFIDPQRYEEEQLSWL
0.66 relative to control cells	0.31 relative to control cells	VPS11 (natural protein, human (endogenous in HEK293), UniProt Q9H270 1-941, looked up, VPS11, shared class C core subunit of HOPS and CORVET, detected by anti-VPS11 western blot in anti-FLAG precipitates; also called core subunit VPS11; source: endogenous, HEK293 lysate) MAAYLQWRRFVFFDKELVKEPLSNDGAAPGATPASGSAASKFLCLPPGITVCDSGRGSLVFGDMEGQIWFLPRSLQLTGFQAYKLRVTHLYQLKQHNILASVGEDEEGINPLVKIWNLEKRDGGNPLCTRIFPAIPGTEPTVVSCLTVHENLNFMAIGFTDGSVTLNKGDITRDRHSKTQILHKGNYPVTGLAFRQAGKTTHLFVVTTENVQSYIVSGKDYPRVELDTHGCGLRCSALSDPSQDLQFIVAGDECVYLYQPDERGPCFAFEGHKLIAHWFRGYLIIVSRDRKVSPKSEFTSRDSQSSDKQILNIYDLCNKFIAYSTVFEDVVDVLAEWGSLYVLTRDGRVHALQEKDTQTKLEMLFKKNLFEMAINLAKSQHLDSDGLAQIFMQYGDHLYSKGNHDGAVQQYIRTIGKLEPSYVIRKFLDAQRIHNLTAYLQTLHRQSLANADHTTLLLNCYTKLKDSSKLEEFIKKKSESEVHFDVETAIKVLRQAGYYSHALYLAENHAHHEWYLKIQLEDIKNYQEALRYIGKLPFEQAESNMKRYGKILMHHIPEQTTQLLKGLCTDYRPSLEGRSDREAPGCRANSEEFIPIFANNPRELKAFLEHMSEVQPDSPQGIYDTLLELRLQNWAHEKDPQVKEKLHAEAISLLKSGRFCDVFDKALVLCQMHDFQDGVLYLYEQGKLFQQIMHYHMQHEQYRQVISVCERHGEQDPSLWEQALSYFARKEEDCKEYVAAVLKHIENKNLMPPLLVVQTLAHNSTATLSVIRDYLVQKLQKQSQQIAQDELRVRRYREETTRIRQEIQELKASPKIFQKTKCSICNSALELPSVHFLCGHSFHQHCFESYSESDADCPTCLPENRKVMDMIRAQEQKRDLHDQFQHQLKCSNDSFSVIADYFGRGVFNKLTLLTDPPTARLTSSLEAGLQRDLLMHSRRGT
